From publication PMC4482077 come the findings set out here.

Experiment in all cases: AUC
For assay [1], the target named is E. faecalis S613 LiaR (wild type, full length) (Enterococcus faecalis S613).
Assay [2] concerns the target LiaR^(DBD), isolated DNA binding domain of wild-type E. faecalis S613 LiaR (residues 140-206) (Enterococcus faecalis S613).
The target in assay [3] is LiaR^(DBD)D191N, isolated DNA binding domain of E. faecalis S613 LiaR (residues 140-206) with D191N (Enterococcus faecalis S613).
For assay [4], the target named is LiaR^D50E (phosphomimetic mutant of E. faecalis S613 LiaR) (Enterococcus faecalis S613).
In assay [5] the target is LiaR^D191N (adaptive mutant of E. faecalis S613 LiaR) (Enterococcus faecalis S613).

With “E. faecalis S613 LiaR (wild type, full length) (natural protein)”, in assay [1], the Kd worked out at 24 µM and the stoichiometry N came to 4.

In assay [2], “LiaR^(DBD), isolated DNA binding domain of wild-type E. faecalis S613 LiaR (residues 140-206) (domain or fragment)” gave a dissociation constant (Kd) of 2000 nM and a stoichiometry N of 2.

As for “LiaR^(DBD)D191N, isolated DNA binding domain of E. faecalis S613 LiaR (residues 140-206) with D191N (domain or fragment)”, in assay [3], the Kd is less than 40 nM and the stoichiometry N turned out to be 2.

The substance “LiaR^D50E (phosphomimetic mutant of E. faecalis S613 LiaR) (natural protein)” displayed a stoichiometry N in assay [4] of 4.

In assay [5], “LiaR^D191N (adaptive mutant of E. faecalis S613 LiaR) (natural protein)” showed a dissociation constant (Kd) of less than 60 nM and a stoichiometry N of 4.

In general, Kd refers to the constant that tells how readily two partners part at equilibrium. A lower Kd goes with higher affinity. Usually stoichiometry N stands for a count of units in the complex or per binding partner.
